Source: article doi:10.1101/2020.07.29.226720 (bioRxiv, 2020)

B1: AthPEPCK1 Δ19 truncated mutant (enzyme, Arabidopsis thaliana, UniProt Q9T074 20-671, looked up)
chain: GPVMPKITTGAAKRGSGVCHDDSGPTVNATTIDELHSLQKKRSAPTTPINQNAAAAFAAVSEEERQKIQLQSISASLASLTRESGPKVVRGDPAEKKTDGSTTPAYAHGQHHSIFSPATGAVSDSSLKFTHVLYNLSPAELYEQAIKYEKGSFITSNGALATLSGAKTGRAPRDKRVVRDATTEDELWWGKGSPNIEMDEHTFMVNRERAVDYLNSLEKVFVNDQYLNWDPENRIKVRIVSARAYHSLFMHNMCIRPTQEELESFGTPDFTIYNAGQFPCNRYTHYMTSSTSVDLNLARREMVILGTQYAGEMKKGLFSVMHYLMPKRRILSLHSGCNMGKDGDVALFFGLSGTGKTTLSTDHNRYLIGDDEHCWTETGVSNIEGGCYAKCVDLSREKEPDIWNAIKFGTVLENVVFDEHTREVDYSDKSVTENTRAAYPIEFIPNAKIPCVGPHPTNVILLACDAFGVLPPVSKLNLAQTMYHFISGYTALVAGTEDGIKEPTATFSACFGAAFIMLHPTKYAAMLAEKMKSQGATGWLVNTGWSGGSYGVGNRIKLAYTRKIIDAIHSGSLLKANYKKTEIFGFEIPTEIEGIPSEILDPVNSWSDKKAHKDTLVKLGGLFKKNFEVFANHKIGVDGKLTEEILAAGPIF
B2: AthPEPCK1 Δ101 truncated mutant (enzyme, Arabidopsis thaliana, UniProt Q9T074 102-671, looked up)
chain: ESGPKVVRGDPAEKKTDGSTTPAYAHGQHHSIFSPATGAVSDSSLKFTHVLYNLSPAELYEQAIKYEKGSFITSNGALATLSGAKTGRAPRDKRVVRDATTEDELWWGKGSPNIEMDEHTFMVNRERAVDYLNSLEKVFVNDQYLNWDPENRIKVRIVSARAYHSLFMHNMCIRPTQEELESFGTPDFTIYNAGQFPCNRYTHYMTSSTSVDLNLARREMVILGTQYAGEMKKGLFSVMHYLMPKRRILSLHSGCNMGKDGDVALFFGLSGTGKTTLSTDHNRYLIGDDEHCWTETGVSNIEGGCYAKCVDLSREKEPDIWNAIKFGTVLENVVFDEHTREVDYSDKSVTENTRAAYPIEFIPNAKIPCVGPHPTNVILLACDAFGVLPPVSKLNLAQTMYHFISGYTALVAGTEDGIKEPTATFSACFGAAFIMLHPTKYAAMLAEKMKSQGATGWLVNTGWSGGSYGVGNRIKLAYTRKIIDAIHSGSLLKANYKKTEIFGFEIPTEIEGIPSEILDPVNSWSDKKAHKDTLVKLGGLFKKNFEVFANHKIGVDGKLTEEILAAGPIF

Biological target: the molecule itself
Test: SEC

Protein | stoichiometry N
B1 | 6
B2 | 6
